# Test results: the DeepSol protein solubility set
# Test: soluble on expression in E. coli; label from the status in PepcDB or PDB records
row,Sequence,soluble on expression in E. coli
1,MTCARCGYVREDLTLFDRVFVCPKCGWIVDRDYNASLNILRRSGSERPSVWSSAFYRWQGGAMKQEALSVRGGLEHHHHHH,not soluble
2,MKDLSSIVAKFNTQGTITEIKPLGAGLINDTYKVNTQEADAPDYVLQRINHAIFQNVEMLQSNIAAVTGHIRKKLTEAGEADIDRKVLSFLATEEGKTYWFDGESYWRVMVFIPRAKTYETVNPEYSNYAGEAFGNFQAMLADIPETLGETIPDFHNMEFRLKQLRDAVAANAAGRVAEVQYYLDEIEKRADEMCKAERLFREGKLPKRVCHCDTKVNNMMFDEDGKVLCVIDLDTVMPSFIFSDYGDFLRTGANTGDEDDKDLNRVNFNMEIFKAFTKGYLKGAKSFLTPIEIENLPYAAALFPYMQCVRFLADYINGDTYYKIKYPEHNLVRTKAQFKLLQSVEEHTPEMVAFINECLVNGLEHHHHHH,soluble
3,MGDEFRPSHEERSKMYKSNVRDQNEMRRKRREDEVQIRKNRRDEKFERNRQITVQRSLSHEETSELLKSVADGLQSMQETTIHEALTVLHENLNNTVWTIHVLVKVQILHKLSDVYCNRVISQTTRLLISRTLLKISGIDEVKYERYSSDDRCIQSLVFNISTYGSSEDILCDTFQSIACFIIRSITYRNLALDCAIVSELIDASTINMSIILHRSLMWLVFLFCEKLDRCSPHVDEIAPLLEIISNGIQSTDAMVQTDAASSCASLAEWPPIYHYMSDLKLCSKLVANLRNDKGNARPKVKAGINSIIQATGYFTEEMIDAGLLEVLKGFVNVSYMSQEVCFIISNICVEGEQTIDKLISSGVLREVARVMEASEYRSRREAAFVICHCCASANQKHLEYVVELGMLSAFTDLLTCMDVSLVSYILDAIYLLLQFGEMRLLPDNSNPVAIKLEEIGCREKLEFLCESQSVDIHARAYTIIDRFYVDDDAPLNDDPFAGYQRNNIDDTIEKMIREPIMDQPFSF,not soluble
4,AIANDEYYLELSENPVQFENASSVNNVFFDEANKQVFAVRSGGATGVVVKGPDDKSSVAFRMDDKGEVKCIKFSLGNKILAVQRTTKSVDFINFIPDYPHLEFSHECKTKNASILGFCWTNWNEIVFVTDQGIEFYQVLPDKRTLKLLKSQSINVNWYIYCPETAVLLLSTTVQGNVLQPFAFKTATMSKMSKFEIELPAVPKPAKLSLSERDIAVATIYDQLYVMYLKHHSRTTNSPGAEVVLYHLPREGTCKRTNVLRLNTTGKFAINVVDNLVVVHHQTTQTSLIYDIKLRELDGNVNVHQPVLPARSINPFKIPLTGPAAAPSQAPLPCELYSSSWSVFQPDIIISASEGFLWYLQVKLQPTLNLLQDKGKLMDFLLRRRDCKMVILSVCSQMLIGGDKGNLSVVATVFDKLNQVYKEYLDAEQAYTAVNEQNSCFTLYLANTYNNM,soluble
5,MGSDKIHHHHHHMQREEWFHRAVIYQVDSSLFYDANGDGFGDLAGIRQKLHYIRSLGATVLWLTPFYLTPLQDDGYDISDHLQPDPRFGTIADVIELIARARELGLRVIVELVIQHTSAQHPWFQAARRDPRSPWRPYYLWADRPPENDDPPMFPGVEESVWRWDEQAGQYYRHMFYHHEPDLNLAHPPVIAEIENIITFWLQAGVSGFRLDAASHLVKQAGKGDETRGYPLLTHLRQVVQRLNPDAILLGEVDVAVEDYRHYFGQGDRLQMVLNFWLNKYLYLSLAQQRAAPVVKALQAMVTPPDGCCFVNWLRNHDELDLEGIGERNKRQVIRTFAPDKSMSVYQRGVRRRLAPMLDGDTRRIALAHAILLALPGVPVMRYGDEIGMGDDLSLPERYAVRTPMQWSAAANAGFSRAARDDLPVKPVASGRFRYQRINVETALRHPRSLLHRVRNMVLARTEYTEPGSLPFTLLTLKPDAVLGLLYRSESREVLMLANCSQQAVEVLLPPLAEGYWSPILEDKLYQDGLHGGKDARLALSGYGYRWFSRSLS,not soluble
6,MGSDKIHHHHHHVTYVRNNALHCGPLPQHVTAPSFRSGTGFYETLLYNGCRLVNADAHMERITRSARACGLHLLPVDLHAAAQMLLDHLGLCGSMARINLFYTLENAPAADASGLCPPLVPAVTAAPYTPPPADKAFRLCRALHGVQSWWHEHKTTAHMGHLMERTHAQAAGYDDAVLHLPDGAILETTTAALIFYNGSRFTAPFPRFRLSSTAEALVKDVLGITYEKITADRLGCMQHAYVLNALMGMRPVRSIDTAEFNPDTDLCNEMTVLIQKAA,not soluble
7,MAHHHHHHMEVVVKSIGTAFTVAVIPVLKDNYSYVIHDKATNTLAAVDVSVDIDPVIDYVRRLGGVDRTTDLRTILSTHKHHDHSGGNISLQKKLNAMGAFRIIGGANEPIPGVTEKVREGDHFSIGELKVDVLDAPCHTSGHVLYKVYHPQKAENGIALFTGDTMFVGGIGAFFEGDAVLMCSALRKVYNLNGACESSACDATDVQKRDNHTYIFPGHEYTVNFLRFSRDALPASHPDVSFVEAQLRRYTESVAGNVPTVPSTLAEEKRQNLFLRTCDEAFVRVMNKGETAVKLMDFLYNTCP,soluble
8,MSGLKPVKPEGVQSEFSVRVAKRSDDIRYSVMMFNGMDKVDTSKWTIDSGVTMEREDNQRVILSTQTVQEYGEGSEYGKAAREEARRKKYGRQSKKYRLDNQPWKMAFTEPEGRQRQMRGIREGGANEHADYWVFLKPNQSSEFKAYKVDEWHKFLPAITHKTLDIDQAEEQFSQRYKVMNQFALKAAIQNQLSATDESEMTEQQKRLLKIKDEASSDDSDGDDEGEGGDDGKKAKNKKKKKKNAKPAKEKRQRVEDKDDVAKYESSDGEDEGREYDYISDSGTDSDREQVPSDEKIEKQLVGVAEEEGARESDSSESEDDLTKKLMKPYGDKKKGNDIEERDSSGTDSDVSDTEKLDSVVFMKANKDGEGGSGGTGKKRPPTEDSDLKMDNLGPSDAKKAKPAVKFEEGLNEETVRRYLRRKPHTTKELLHKMNGKCGNMSKSEMVTQLASILKAIEPNQSRQLKGKKEVLFFSLVNTIA,not soluble
9,MGSDKIHHHHHHMKIFLDTANLEEIKKGVEWGIVDGVTTNPTLISKEGAEFKQRVKEICDLVKGPVSAEVVSLDYEGMVREARELAQISEYVVIKIPMTPDGIKAVKTLSAEGIKTNVTLVFSPAQAILAAKAGATYVSPFVGRMDDLSNDGMRMLGEIVEIYNNYGFETEIIAASIRHPMHVVEAALMGVDIVTMPFAVLEKLFKHPMTDLGIERFMEDWKKYLENLKK,soluble
10,MTSGANSSGSYLPSEIRSSKIDDNYLKELNEDLKLRKQELLEMLKPLEDKNNLLFQKLMSNLEEKQRSLQIMRQIMAGKGCEESSVMELLKEAEEMKQNLERKNKMLRKEMEMLWNKTFEAEELSDQQKAPQTKNKADLQDGKEKQQRKMEWVKYQEQNNILQNDFHGKVIELRIEALKNYQKANDLKLSLYLQQNFEPMQAFLNLPGSQGIRIV,not soluble
11,MSRPTLQVDLLVESFNYKAWSDRRTLDAIARIDAEAFPASLAFALQQLNHMAIVEELFRARLLGEPAPHQQTNSEVVPGYDVLRRRLEDSAAWFAGYVAELPLERRGEWLRFRFADGRDGGMTRQEILFHIVNHGTYHRGAIGHALDLAGAPRPADTYTLYIHSAQPERRE,not soluble
12,MLSQKLFEEISAKISETIAASPAKDIEKNVRAMMASTFSKMDLVTREEFDVQQAVLARTREKLAALESRLARLESQAFPDEAAAKVEEQSELGHS,not soluble
13,MSLTVVQLTDIHFQWPYPYVTKKKLASIVEKVNEINPDFIFLTGDFISRYRTYNISKYNTETIAFYLGQLRAKRGIYAIQGNNDRCAGDMLLKAFKENGVRMLMNEGIIDDDISITGILSSKNIDICNTWLNQTKIPDAPLKILLSHQPDTALVTYPFFDLQFSGHTHGGQCIAPFGIGPILHPKMGHKFIVGVYKIGNMILHVSTGIGISPLPKPLVRFNNIAEVSVIRVVPEEGHHHHHH,not soluble
14,MSLKYEGSISINATKDQILKLLDNPDQVAQCFPGIKSFSKEGEEYKVVGVTGIGFIKGEYRANVRFEKIDDNKRKIIAKGTGMNSNVDIDAIAEALDGKINYSADVKVAGVLASVGARLMGSAVEKIINDLFNCIKERVIKEGHHHHHH,soluble
15,MTAARSAPSPAGAPRPGLRERKKTRTREAIRAATYGLIRQQGYEATTVEQIAERAEVSPSTVLRYFPTREDIVLTDEYDPVMAAELAARPAGEPWSDSLRHVLRKALGLGAGEEAELIRLRTRLLAEVPAVRARMLENMSDTGRMLARAIADRTGLDPDGLEVRIVSMSLVGGLMEVSRYWAEHDHEESLAELVDRALDALENGLPALRESDRESDREGDRGGHREDRREGPRKD,soluble
16,MSKFNRIHLVVLDSVGIGAAPDADKFFNAGVADTDSDTLGHISEAAGLSVPNMAKIGLGNISRPIPLKTVPTEDNPTGYVTKLEEVSLGKDTMTGHWEIMGLNITEPFDTFWNGFPEEILTKIEEFSGRKIIREANKPYSGTAVIDDFGPRQMETGELIVYTSADPVLQIAAHEDIIPVEELYKICEYARSITLERPALLGRIIARPYVGDPGNFTRTANRHDYAVSPFQDTVLNKLADAGVPTYAVGKINDIFNGSGITNDMGHNKSNSHGIDTLIKTLQLPEFTKGFSFTNLVDFDANFGHRRDPEGYRDCLHEFDNRLPEIIANMKEDDLLLITADHGNDPTYAGTDHTREYIPLLAYSVSFTGNGLIPQGHFADISATVAENFGVDTAMIGESFLSHLK,not soluble
17,MAVSNIWQSYSSSNLHWIYPLYTNNCSQNVKSSFTAEILLKRRCNDIQDILNDRMIELLLQGACDPNKQQNYLQGMSPSRKKKTHVKKFLKKQKKSRKPITLEHGCLSGPVTLRFGNFAGIRDLRGTRCPLHGIKHGVHPKPGERCACQQATLFPSPLARFSCDQSAVLGCAASSTRVYDSIADEFSSLYF,not soluble
18,MSLQQGDRVPAGLTLTNQAGESFRIGDYRGQTLVLTFIYTRCPLPTYCPLMSKQFAALQPQLRERYGEEAQLLSISFDPAYDTPQVLREYASKYTDRLDTWTFATGDSSQVERATGLFGVHAQKTGSEEITHNLTTALIGSEGHVRRLWRGNDWTPEDVRQAVAQVAEASEGHHHHHH,soluble
19,MGSDKIHHHHHHMIIKNAKIYGDSLQDIEIKEGKITNIDSNLQGEEILDAKGMTLLPSFVDLCVSLKNDKFSLANLELLENECLKGGISSIVLRDCMDFDEESFALFLQNLAQRKMQIFSSVRVKDANGKLKNLATLLNKGACALELDSSLDANTLKVSSQYAFMKDSPIFVRCYDKDFDDNGVMNDCEMSFELGLIGMSKIAETSQIAKMKELAKFYKNKVIFDLLSLKDSLVLLDEKDLKLVSIHHLIKDDSACEDFNTAAKLMPPLRSKEDVLALREVLKEGKISFLTSLHSAKSISLKDLAFDEAAFGIHSVCEFISLCYTFLIKEGFLNWQELCRFTSKNPSEFLGLNSGVIEVGKEANLVLFDENEEIFAPKSSLYSEDKLFGKIKMHIIKGKNILEK,not soluble
20,SDEVYLYSDATTSKIARTVTQKLGFSKASSSGTRLHRGYVEEATLEDKPSQTSHIVFVVHGIGQKMDQGRIIKNTAMMREAARKMEEKHFSNHATHVEFLPVEWRSKLTLDGDTVDSITPDKVRGLRDMLNSSAMDIMYYTSPLYRDELVKGLQQELNRLYSLFCSRNPDFEEKGGKVSIVSHSLGCVITYDIMMGWNPGGLYEQLLQKEEELPDERWMSYEERHLLDELYITKRRLREIEDRLHGLKAPSISQTPALKFKVENFFCMGSPLAVFLALRGIRPGNSGSQDHILPREICNRLLNIFHPTDPVAYRLEPLILKHYSNISPVQIHWYNTSNPLPYEHMKPNFLNPAKEPTSVSDSENIAAIPSPVTSPVLSRRHYGESITNIGKASILGAASIGKGLGGMLFSRFGRSSASQPSEPSKDSLEDDKKPSASPSTTTVATQTLPHSGSGFLDSAYFRLQESFFYLPQLLFPENVMQSKDDSLVELEHRIDFELREGLVESRYWSAVTSHTAYWSSLDVALFLLTFMYKHEHDTEAKPSLGSL,soluble
